Measured values: patent publication US20020137076
pKi: −log10 of the molar value.

Molecular target: RNase A (UniProt P61823)
Assay: inhibition

UniProt P61823, sequence (P61823 27-150): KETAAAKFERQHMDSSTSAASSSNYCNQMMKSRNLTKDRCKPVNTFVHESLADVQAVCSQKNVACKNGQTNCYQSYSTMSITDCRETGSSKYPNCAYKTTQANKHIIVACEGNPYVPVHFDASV

polyG was tested, and the pKi (2 ug/ml polyG, polyC substrate, 100 mM MES, 100 mM NaCl pH 6.0, non-competitive) was 8.00, the pKi (20 ug/ml polyG, polyC substrate, 100 mM MES, 100 mM NaCl pH 6.0, non-competitive) was 7.06 and the pKi (Dixon, 40 mM Tris-HCl pH 7.9, 6 mM MgCl2, 10 mM NaCl, 2 mM spermidine) was 7.40. The pKi (Dixon, 40 mM Tris-HCl pH 7.9, 6 mM MgCl2, 10 mM NaCl, no spermidine) was 8.00.
